{
  "source": "patent US20250270327A1",
  "key": {"[1]": {"target": "HLA-E*01 on THP1 and U937 cells (human)", "test": "mass spectrometry of peptide recovered from immunopurified HLA-E, U937 cells"}, "[2]": {"target": "HLA-E*01 on THP1 and U937 cells (human)", "test": "mass spectrometry of peptide recovered from immunopurified HLA-E, THP1 cells"}, "[3]": {"target": "HLA-E*01 on THP1 and U937 cells (human)"}, "[4]": {"target": "HLA-A*02 on THP1 and U937 cells"}},
  "note": "Where “and” joins values, the source holds several entries; their conditions need not be identical. Equal entries are not always repeated. Where two headings read alike, the source gives them in different places.",
  "data": [
    {"binder": "VMAPRTLIL (modifications not checked)", "note": "[peptide … (from the HLA-C*03:03 gene in THP1, the HLA-C*01:02 gene in U937)]", "values": [
      {"measurement": "Peptide quantity (min. copies per cell) (copies per cell)", "setting": "[1]", "value": 877},
      {"measurement": "Peptide quantity (min. copies per cell) (copies per cell)", "setting": "[2]", "value": 70}
    ]},
    {"binder": "VMAPRTLVL (modifications not checked)", "note": "[peptide … (from the HLA-A*02:01 gene)]", "values": [
      {"measurement": "Peptide quantity (min. copies per cell) (copies per cell)", "setting": "[1]", "value": 586},
      {"measurement": "Peptide quantity (min. copies per cell) (copies per cell)", "setting": "[2]", "value": 155}
    ]},
    {"binder": "VMAPRTLLL (modifications not checked)", "note": "[peptide … (from the HLA-A*03:01 and HLA-A*31:01 genes)]", "values": [
      {"measurement": "Peptide quantity (min. copies per cell) (copies per cell)", "setting": "[3]", "value": 302}
    ]},
    {"binder": "RLPAKAPLL (modifications not checked)", "note": "[peptide … from Mycobacterium tuberculosis enoyl-ACP reductase (inhA)]", "values": [
      {"measurement": "Peptide quantity (min. copies per cell) (copies per cell)", "setting": "[3]", "value": "52 and 22"}
    ]},
    {"binder": "VMAPRALLL (modifications not checked)", "note": "[peptide … (from the HLA-C*07:01 gene)]", "values": [
      {"measurement": "Peptide quantity (min. copies per cell) (copies per cell)", "setting": "[3]", "value": 35},
      {"measurement": "Peptide quantity (min. copies per cell) (copies per cell)", "setting": "[4]", "value": 0}
    ]}
  ]
}
